Five molecules from patent US10544441B2, “Method for biocatalytic whole cell reduction of dehydrocholic acid compounds, and 7-β-hydroxysteroid dehydrogenase mutants” (Pharmazell GmbH, priority 2014, dated 2020) can be followed below.

Format in all cases: biochemical
Data set [1] is described as follows: Enzyme kinetic study of 7β-HSDH mutants, DHCA kinetics with NADH as cofactor. Conditions: 0.5 mM NADH; for vmax (maximal specific enzyme activity): substrate DHCA. Here is the method:
Enzyme activity determinations were performed at 30° C. in the microtiter plate photometer with a sample volume of 250 μL, in which the change in the NAD(P)H concentration (ε 340=6.22 mL μmol^−1 cm^−1) was monitored at a wavelength of λ=340 nm. Here, the activities were determined by linear regression in the part of the reaction proceeding linearly. For this, the sample to be tested was appropriately diluted with potassium phosphate buffer (50 mM, pH 8.0) and treated with substrate and cofactor. The final concentrations of substrate and cofactor were 10 mM DHCA and 100 μM NADPH for 7β-HSDH, 10 mM DHCA and 100 μM NADH for 3α-HSDH, and 200 mM glucose and 1000 μM NAD(P) for GDH.
The mutants created were assessed by means of enzyme kinetic studies. For the study of the DHCA kinetics, 0.5 mM NADH was used as the cofactor (FIG. 9), while for the study of the NADH kinetics, 10 mM DHCA was used as the substrate (FIG. 10). From the plots of the DHCA kinetics, the characteristic curve shapes of the Michaelis-Menten kinetics can be discerned for the 7β-HSDH mutants, and no substrate inhibition was observed. Accordingly, the classical Michaelis-Menten model (equation 1) was used for the evaluation of the kinetic parameters.
[formula] EAX: specific enzyme activity, U mg^−1=μmol min^−1 mg^−1 vmax: maximal specific enzyme activity, U mg^−1=μmol min^−1 mg^−1 cs: substrate or cofactor concentration, mol L^−1 Km: half-saturation concentration, mol L^−1

Data set [2] is described as follows: First activity assay of purified 7β-HSDH G39D with NADPH or NADH. Here is the method: Enzyme activity determinations were performed at 30° C. in the microtiter plate photometer with a sample volume of 250 μL, in which the change in the NAD(P)H concentration (ε 340=6.22 mL μmol^−1 cm^−1) was monitored at a wavelength of λ=340 nm. Here, the activities were determined by linear regression in the part of the reaction proceeding linearly. For this, the sample to be tested was appropriately diluted with potassium phosphate buffer (50 mM, pH 8.0) and treated with substrate and cofactor. […]
The G39D mutant of the 7β-HSDH was produced as described in WO 2012/080504. The protein was expressed with an N-terminal His tag and purified by IMAC.

Data set [3] in a line: Single-stage biotransformation of DHCA to 3,12-diketo-UDCA with purified NADH-dependent 7β-HSDH mutants. Conditions: after 16 hrs; 0.2 mg mL^−1 7β-HSDH, 10 U mL^−1 GDH, 0.5 mM NAD, 50 mM DHCA, pH 8.0, 30° C.

B1: G39D: 7β-HSDH from Collinsella aerofaciens with substitution G39D, produced as described in WO 2012/080504 (protein)
chain: MNLREKYGEWGLILGATEGVGKAFCEKIAAGGMNVVMVDRREEKLNVLAGEIRETYGVETKVVRADFSQPGAAETVFAATEGLDMGFMSYVACLHSFGKIQDTPWEKHEAMINVNVVTFLKCFHHYMRIFAAQDRGAVINVSSMTGISSSPWNGQYGAGKAFILKMTEAVACECEGTGVDVEVITLGTTLTPSLLSNLPGGPQGEAVMKIALTPEECVDEAFEKLGKELSVIAGQRNKDSVHDWKANHTEDEYIRYMGSFYRD
With B1, in data set [1], the Km was determined as 660 ± 120 µM and the “vmax (maximal specific enzyme activity)” value was 2.90 ± 0.16 U mg^−1. Moreover, in data set [2], the NADH activity result was “marked NADH activity”. This molecule also had an NADPH activity in data set [2] (10 mM DHCA, 0.5 mM NADPH and pH 8.0) of 0.040±0.005 U mg^−1.

B2: DFKG: 7β-HSDH mutant with amino acid substitutions G39D R40F R41K K44G compared to the wild type sequence (protein)
chain: MNLREKYGEWGLILGATEGVGKAFCEKIAAGGMNVVMVDFKEEGLNVLAGEIRETYGVETKVVRADFSQPGAAETVFAATEGLDMGFMSYVACLHSFGKIQDTPWEKHEAMINVNVVTFLKCFHHYMRIFAAQDRGAVINVSSMTGISSSPWNGQYGAGKAFILKMTEAVACECEGTGVDVEVITLGTTLTPSLLSNLPGGPQGEAVMKIALTPEECVDEAFEKLGKELSVIAGQRNKDSVHDWKANHTEDEYIRYMGSFYRD
Turning to B2, in data set [1], the Km was 380 ± 50 µM and the “vmax (maximal specific enzyme activity)” value turned out to be 5.72 ± 0.19 U mg^−1. Besides, the “vmax (maximal specific enzyme activity)” value in data set [1] (listed as 7β-HSDH DFKG) is on record as 5.72±0.19 U mg^−1. For the same molecule, in data set [3], the “conversion of DHCA to 3,12-diketo-UDCA” value is given as “complete conversion”.

B3: DFK: 7β-HSDH mutant with amino acid substitutions G39D R40F R41K compared to the wild type sequence (protein)
chain: MNLREKYGEWGLILGATEGVGKAFCEKIAAGGMNVVMVDFKEEKLNVLAGEIRETYGVETKVVRADFSQPGAAETVFAATEGLDMGFMSYVACLHSFGKIQDTPWEKHEAMINVNVVTFLKCFHHYMRIFAAQDRGAVINVSSMTGISSSPWNGQYGAGKAFILKMTEAVACECEGTGVDVEVITLGTTLTPSLLSNLPGGPQGEAVMKIALTPEECVDEAFEKLGKELSVIAGQRNKDSVHDWKANHTEDEYIRYMGSFYRD
For the molecule B3, in data set [1], the Km worked out at 290 ± 50 µM and the “vmax (maximal specific enzyme activity)” value is 5.91 ± 0.23 U mg^−1. Besides, in data set [1] (listed as 7β-HSDH DFK), the “vmax (maximal specific enzyme activity)” value is 5.91±0.23 U mg^−1.

B4: DF: 7β-HSDH mutant with amino acid substitutions G39D R40F compared to the wild type sequence (protein)
chain: MNLREKYGEWGLILGATEGVGKAFCEKIAAGGMNVVMVDFREEKLNVLAGEIRETYGVETKVVRADFSQPGAAETVFAATEGLDMGFMSYVACLHSFGKIQDTPWEKHEAMINVNVVTFLKCFHHYMRIFAAQDRGAVINVSSMTGISSSPWNGQYGAGKAFILKMTEAVACECEGTGVDVEVITLGTTLTPSLLSNLPGGPQGEAVMKIALTPEECVDEAFEKLGKELSVIAGQRNKDSVHDWKANHTEDEYIRYMGSFYRD
Turning to B4, in data set [1], the Km was determined as 420 ± 60 µM and the “vmax (maximal specific enzyme activity)” value is reported as 3.70 ± 0.13 U mg^−1.

B5: G39D R40I: previously reported 7β-HSDH double mutant G39D R40I, reference, previously most active mutant (protein)
chain: MNLREKYGEWGLILGATEGVGKAFCEKIAAGGMNVVMVDIREEKLNVLAGEIRETYGVETKVVRADFSQPGAAETVFAATEGLDMGFMSYVACLHSFGKIQDTPWEKHEAMINVNVVTFLKCFHHYMRIFAAQDRGAVINVSSMTGISSSPWNGQYGAGKAFILKMTEAVACECEGTGVDVEVITLGTTLTPSLLSNLPGGPQGEAVMKIALTPEECVDEAFEKLGKELSVIAGQRNKDSVHDWKANHTEDEYIRYMGSFYRD
As for B5, in data set [1], the Km was found to be 920 ± 170 µM and the “vmax (maximal specific enzyme activity)” value came out at 4.64 ± 0.27 U mg^−1.

One may read the Km as the substrate concentration at which the rate is half of its maximum.
